We go through two substances from paper PMC12421860.

The target in experiment [1] is PorK with a C-terminal twin strep tag (PorK-Strep), subunit of the purified PorKN ring (Porphyromonas gingivalis). Description: cryo-EM structure; PorKN rings purified from P. gingivalis through the twin strep tag on PorK (Strep-Tactin, 0.5% Triton X-100); single and double rings; whole rings at 7.4 Å (single) and 5.6 Å (double) with 33-fold symmetry; focused refinement of a segment in C1 to 3.2 Å.

Experiment [2] addresses PorN, subunit of the purified PorKN ring (Porphyromonas gingivalis (endogenous in P. gingivalis)). Described as above.

By stoichiometry N is commonly meant the number of molecules, sites or subunits per partner or assembly. The substance “PorK with a C-terminal twin strep tag (PorK-Strep), subunit of the purified PorKN ring (natural protein)” showed a stoichiometry N in experiment [1] of 33.
Consider “PorN, subunit of the purified PorKN ring (natural protein)”, for which the stoichiometry N in experiment [2] was 33.
